One series deals with T1, IFF05588.
T1 chain: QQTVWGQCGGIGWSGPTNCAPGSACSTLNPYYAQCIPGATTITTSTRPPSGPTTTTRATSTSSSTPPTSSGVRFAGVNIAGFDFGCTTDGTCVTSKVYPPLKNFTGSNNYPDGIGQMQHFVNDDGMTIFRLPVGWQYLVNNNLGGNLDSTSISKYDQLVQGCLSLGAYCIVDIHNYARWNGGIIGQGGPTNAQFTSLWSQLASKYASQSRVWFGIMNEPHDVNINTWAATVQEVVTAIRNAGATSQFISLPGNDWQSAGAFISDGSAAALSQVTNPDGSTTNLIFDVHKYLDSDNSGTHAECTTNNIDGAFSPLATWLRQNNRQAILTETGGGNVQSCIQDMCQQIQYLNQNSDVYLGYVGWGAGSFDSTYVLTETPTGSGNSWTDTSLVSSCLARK

The next series concerns the target T2, IFF07399.
T2 chain: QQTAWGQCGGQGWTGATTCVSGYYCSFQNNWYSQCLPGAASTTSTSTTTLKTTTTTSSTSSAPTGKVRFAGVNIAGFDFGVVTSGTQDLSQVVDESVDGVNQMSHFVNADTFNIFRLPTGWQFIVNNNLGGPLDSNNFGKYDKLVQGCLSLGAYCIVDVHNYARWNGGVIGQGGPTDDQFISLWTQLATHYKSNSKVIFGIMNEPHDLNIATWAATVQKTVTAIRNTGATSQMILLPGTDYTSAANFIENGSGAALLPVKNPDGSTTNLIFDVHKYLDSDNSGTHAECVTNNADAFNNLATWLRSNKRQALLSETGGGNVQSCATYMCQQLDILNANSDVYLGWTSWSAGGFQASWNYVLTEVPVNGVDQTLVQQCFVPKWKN

B1: IFF21347 (protein)
chain: KLDKPVIQPNFPGGGLASLGQGLLDNLKPTQSTSDVWGAGWIPADCKSLVQGAGLSPNDITPFNIHYTDCSQTWTFCRHKDSPLSQTDIIDLFGRVPVRMRDYIRHYVFIPGNKSAGSSGDNTLMVGDVDITVFLHEIGHSLDSHAFDPSYGVPFSTGNVWISNYNQDSAVTDDYAQSSQQENFAQETVVSVYDKNVPGGIGNIQPNWQAIFHQYATLEGYIGDTIIPGGTCVNRLTDSQPVTMSNSAKFRRNLGPKPTVSLSPDVKEIKAIPMADSIKMTSFDEHGKPNGTYVIQL
Take B1: in the series with IFF05588, the Relative late peak area (centered, scaled, averaged over 5, 10 and 15 min) is 1.74; the Relative late peak area (centered, scaled, averaged over doses, 24 h; sample diluted 10-fold) came to 1.14; the Relative late peak area (reverse phase chromatography, 24 h) is 0.59.

B2: IFF21346 (protein)
chain: NLDKPVIQPNFPGGGLASLGQGLLDNLKPTQSTSDVWGAGWIPADCKSLVQGAGLSPNDITPFNIHYTDCSQTWTFCRHKDSPLSQTDIIDLFGRVPVRMRDYIRHYVFIPGNKSAGSSGDNTLMVGDVDITVFLHEIGHSLDSHAFDPSYGVPFSTGNVWISNYNQDSAVTDSYAQSSQQENFAQETVVSVYDKNVPGGIGNIQPNWQAIFHQYATLEGYIGDTIIPGGTCVNRLTDSQPVTMSNSAKFRRTLGPKPTVSLSPDVKEIKPIPMADSIKMTSFDEHGKPNGTYVINL
Regarding B2, in the series with IFF05588, the Relative late peak area (centered, scaled, averaged over 5, 10 and 15 min) was 0.52; the Relative late peak area (centered, scaled, averaged over doses, 24 h; sample diluted 2-fold) worked out at 1.07.

B3: IFF21358 (protein)
chain: GNPDKPEVNPHIPYDRLENDLRNNLHPTQSTWDYWGAGWIPQGCKDLANTYHLNPADFTIFNVHYTDCSASWTFCRHKNAGASEIDMIDIFGRLPVRMRSYLRHLVATPGLNDGAAAWTWSSGDCVVESAPNLATLVHEVSHSLDWHALPQYQQPFSSSSIWQDNYNQDSATPTGYGRTNWMENFAETGMVGVYDKAVPGGIGNIEPNWNAIFHQYATYQGYLGDKIIAGGSCANRFDDTPPVAMSNSAKFKITSAKPETGIDFAGKNITQIIPSKEFEGLYIKG
For the protein B3, in the series with IFF05588, the Relative late peak area (centered, scaled, averaged over 5, 10 and 15 min) is -1.04; the Relative late peak area (centered, scaled, averaged over doses, 24 h; sample diluted 1-fold) was -1.46; the “modification of IFF05588 (reverse phase chromatography, 5 to 15 min)” value was “All samples containing proteins related to IFF05497 except seven (IFF21355, IFF21358, IFF21356, IFF21361, IFF21370, IFF21357 and IFF21353) are able to modify IFF05588 under these reaction conditions”. The “Gel mobility change (SDS-PAGE)” value in the series with IFF07399 was “yes”.

B4: IFF21370 (protein)
chain: DDTPPFKPVISPAFDFYGTLEDGLRANLAPTQSTWDQWGEGWIPDDCKWYAEYYGYAANEFEVFNVKYTDCDEAWIMCRHKQATVSQTGMIDLFGRLPLGMREYVKHVVMAPETKANTVASSYRGTIAFDQDYFSIYNLVHETGHCMDGTAALDVFPDGISSSSIWQDNYNQDSAVVRDYARSSWVENFAETGTVAVYDKVVPGGIGPIQPNWEQIYHQYATYNGYLSDIITPGAKDKCTQRRENSETVAMGASSRIMRSSPPDTSFKSDVKVMPAGANDEFFFEHSRDH
B4: in the series with IFF05588, the Relative late peak area (centered, scaled, averaged over 5, 10 and 15 min) was -1.05; the “modification of IFF05588 (reverse phase chromatography, 5 to 15 min)” value was “All samples containing proteins related to IFF05497 except seven (IFF21355, IFF21358, IFF21356, IFF21361, IFF21370, IFF21357 and IFF21353) are able to modify IFF05588 under these reaction conditions”.

B5: IFF21366 (protein)
chain: QNLNKPVLFSDGLSPHVDSVFFQHLTPTQSTWDKWGWGWIPQACLSVVQGTQFSPYDIEVYNVHYTDCASAVVMCRHNQAQMSIINMIDAFGRIPIHDRQWTQHILALPAGGCSAGTGGAVTTFYGPCYIPSVFVHELTHTLDAFVNDKTGSTGAVHVYSTTSSYLNSVNQDSCVPDGYANTSPQEDYAQTSVLALYEKVNPGGLDPIGPWRCLVNAKNNLDSIIGQELTPGGSCTHRWADSAIVCMGPAAGCTSSKRGFEGRRGLKPVGPKPNPANKKGDPLVLDLLPDLASVVNAKITDFSHLSSNHTAGIEATIRINAWNKAAGKETVPVPKA
In the series with IFF05588, B5 gave a Relative late peak area (centered, scaled, averaged over 5, 10 and 15 min) of 0.34; a Relative late peak area (centered, scaled, averaged over doses, 24 h; sample diluted 2-fold) of 1.02. For the same protein, the “Gel mobility change (SDS-PAGE)” value in the series with IFF07399 was “yes”.

B6: IFF21376 (protein)
chain: QTLDKPALTPDLDYLEQGAIDNLAPTQSTNDQWGSGWIPSDCKDIANNEGKNPDDFEIYNVHYDDCDDAWVFCRHKDTPTDLITTIDIFGRLPVAMRSWVRHVLTIPGDNYAYNSNGNIAFFGTTSGIMDVAIHETGHSLDLLGAYGDQLSSSQDWLDNYNQDSNVPDNYAQTNQIENVEQNTVVSVYDKVVPGGFGSAQPNWNNIFHQYATLQGKAGDQIIPGGSCDRHLVNSETVSTSDSAAAAMVDAVDKPVTSFKGNYTKILKTHAKFNTKESCYFGN
Take B6: in the series with IFF05588, the Relative late peak area (centered, scaled, averaged over 5, 10 and 15 min) is -0.99; the Relative late peak area (centered, scaled, averaged over doses, 24 h; sample diluted 1-fold) was -1.61.

B7: IFF21374 (protein)
chain: QRLNKPALTPNLDYLEQGNIDNLHPTHSTWDKWGPGWIPADCKSIAQNEGKNPDDFEIYNVHYDDCSDAWVFCRHKDSNVDLVTTIDIFGRLPVKMRSWVRHVITIPGDSWAYNSNGNIAFFGTTSSSMDVAIHETGHSLDLLGAYWGKTFSDSSTWLDNYNQDPNVPDEYAQTNQVENVAQNTVVGVYDKVVPGGFGSVQPNWHNIFHQYATLQWGAGDQIIPGGTCDRHLQNSETVPTGNSALAFNAVNRPDTSLKGNYSNIVTDFKEFSTRGNCRI
Turning to B7, in the series with IFF05588, the Relative late peak area (reverse phase chromatography, 24 h) amounted to 0.51. Further, the “Gel mobility change (SDS-PAGE)” value with IFF07399 is reported as “yes”.

B8: IFF21372 (protein)
chain: QNLGKPVLFTDGLSPHVDASFWAHLNPTQSTWDQWGWGWIPQSCFDAANSNNVSPYDFEVFNVHYTDCGTAWVFCRHHSASLSQIDMIDLFGRLPVHERQWIRHVVAVPGGGSAYELNADVVFQGPVGTPSVFQHEVGHAVDFYKNGFQSSGTSQFLNAIQQDSCVPDDYANSNNVEDYTQVGVLSLYEIVNPGGLDPIGANWRCLVNQKNVLDGFQRDNMIPGGVCDRRWADSTIVKMGPAVPRVKRGPVGPIPQPAGLPVPGPSKAGPDVYKNLVFNATEKRNAETRQAAWQKAAKGAEA
Consider B8, for which, in the series with IFF05588, the Relative late peak area (centered, scaled, averaged over 5, 10 and 15 min) was 1.62; the Relative late peak area (centered, scaled, averaged over doses, 24 h; sample diluted 10-fold) came to 1.18; the Relative late peak area (reverse phase chromatography, 24 h) was found to be 0.6.

B9: IFF21344 (protein)
chain: KLDKPIIQPNFPGGGLASLGQGLLNNLSPTQSTSDNWGAGWIPADCKSLVQGAGLSPFDVTPFNIHYTDCSQTWTFCRHKDSPLSQTDIIDLFGRVPVRMRDFIRHYVFIPGATSAGSSGDNTLMVGNVDITVFLHEIGHSLDSHAFDPSYGVPFSTSNVWISNYNLDSAVTDSYAQTSQQENFAQETVVSVYDKVVPGGIGTIQPNWQAIFHQYATLQGYIGNTIIPGGTCVNRLTDSQPVTMGNSAKFRRGLGPKPTVSLSPDVKEIKPIPMSDSITMTTFDEFGKANGTYVIHL
Regarding B9, in the series with IFF05588, the Relative late peak area (centered, scaled, averaged over 5, 10 and 15 min) amounted to 1.36; the Relative late peak area (centered, scaled, averaged over doses, 24 h; sample diluted 10-fold) was 0.79. Also, the “Gel mobility change (SDS-PAGE)” value in the series with IFF07399 is listed as “yes”.

B10: IFF21345 (protein)
chain: KLDKPIIQPNFPGGGLASLGQGLLNNLSPTQSTSDNWGAGWIPADCKSLVQGAGLSPFDVTPFNIHYTDCSQTWTFCRHKDSPLSQTDIIDLFGRVPVRMRDFIRHYVFIPGATSAGSSGDNTLMVGNVDITVFLHEIGHSLDSHAFDPSYGAPFSNSNIWISNYNLDSAVTDSYAQTSQQENFAQETVVSVYDKVVPGGIGTIQPNWQAIFHQYATLQGYIGDTIIPGGTCVNRLTDSQPVTMGNSAKFRRGLGPKPTVSLSPDVKEIKPIPMSDSITMTTFDEFGKANGTYVIHL
Turning to B10, in the series with IFF05588, the Relative late peak area (centered, scaled, averaged over 5, 10 and 15 min) was 1.82; the Relative late peak area (centered, scaled, averaged over doses, 24 h; sample diluted 10-fold) turned out to be 1.24.

B11: IFF21361 (protein)
chain: DLLRPEIDTVFADGLGPLDQPLVDNLPLTSYTLNQWAPGWIPADCKAMIEGQNMSATEMTVWSVAYADCVDPWVMCQHPSAELNLTAMIDLFGRLPVKMRSLVRHLAAIPGRPWAYNSGTTGRISVFAHEVGHSMDYHGYFNDTRGQFSLSSLWLDNFAKDSGVADYYANTDQGENHSQEVVVALFDANVPGGLGSVTGNWSAILHQYATIQGFVGDGGDTLTPGGACSHRHNNSAAVPMTTEDAAQGPPPDVELTGPVHVYAFKPMEPVANATVVKEDGVAAPMVVKVF
With B11, in the series with IFF05588, the Relative late peak area (centered, scaled, averaged over 5, 10 and 15 min) was -1.05; the Relative late peak area (centered, scaled, averaged over doses, 24 h; sample diluted 1-fold) was -1.64; the “modification of IFF05588 (reverse phase chromatography, 5 to 15 min)” value is “All samples containing proteins related to IFF05497 except seven (IFF21355, IFF21358, IFF21356, IFF21361, IFF21370, IFF21357 and IFF21353) are able to modify IFF05588 under these reaction conditions”; the “modification of IFF05588 (reverse phase chromatography, 24 h, doses)” value is “All samples containing proteins related to IFF05497 except two (IFF21376 and IFF21361) are able to modify IFF05588 under these reaction conditions. Close comparison of the chromatograms for these two samples show differences between buffer and sample chromatograms indicative of activity in the sampl”.

These data come from patent publication US20250051821.
